Results as given in PMC12398788, “Molecular basis of the autoregulatory mechanism of motor neuron-related splicing factor 30”.
Substitutions are numbered along the chain they refer to.

Assays:
[1] = biological target: T1, SPF30 FSV3A (human, UniProt O75940 1-238, F199A;S201A;V209A); assay: EMSA; 200 or 400 ng protein; distinct mobility from WT; EMSA: 40 mM Tris-HCl pH 7.4, 30 mM KCl, 1 mM MgCl2, 0.01% IGEPAL CA-630, 25 °C 30 min, 20 fmol RNA in 12 µl; UV cross-linking: 50 mM Tris-HCl pH 7.4, 150 mM NaCl, 0.5% IGEPAL CA-630, 4 °C 4 h; details: protein: recombinant; tags: N-terminal 6xHis; label: biotin; stem-loop predicted at intron 3/exon 4a/exon 4
T1 sequence: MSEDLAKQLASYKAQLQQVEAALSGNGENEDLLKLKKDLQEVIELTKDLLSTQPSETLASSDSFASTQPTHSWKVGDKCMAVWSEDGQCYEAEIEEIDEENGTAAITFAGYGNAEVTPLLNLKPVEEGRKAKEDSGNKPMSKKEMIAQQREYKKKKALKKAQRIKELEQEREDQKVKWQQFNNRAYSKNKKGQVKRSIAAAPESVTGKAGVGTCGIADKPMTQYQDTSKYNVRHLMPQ

[2] = biological target: T2, SPF30 197-217 peptide (human, UniProt O75940 197-217); assay: EMSA; EMSA: 40 mM Tris-HCl pH 7.4, 30 mM KCl, 1 mM MgCl2, 0.01% IGEPAL CA-630, 25 °C 30 min, 20 fmol RNA in 12 µl; UV cross-linking: 50 mM Tris-HCl pH 7.4, 150 mM NaCl, 0.5% IGEPAL CA-630, 4 °C 4 h; details: label: biotin; stem-loop predicted at intron 3/exon 4a/exon 4
T2 chain: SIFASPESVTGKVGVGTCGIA

[3] = biological target: T3, SPF30 ΔC5 (human, UniProt O75940 1-217); assay: EMSA; 200 or 400 ng protein; EMSA: 40 mM Tris-HCl pH 7.4, 30 mM KCl, 1 mM MgCl2, 0.01% IGEPAL CA-630, 25 °C 30 min, 20 fmol RNA in 12 µl; UV cross-linking: 50 mM Tris-HCl pH 7.4, 150 mM NaCl, 0.5% IGEPAL CA-630, 4 °C 4 h; details: protein: recombinant; tags: N-terminal 6xHis; label: biotin; stem-loop predicted at intron 3/exon 4a/exon 4
T3 sequence: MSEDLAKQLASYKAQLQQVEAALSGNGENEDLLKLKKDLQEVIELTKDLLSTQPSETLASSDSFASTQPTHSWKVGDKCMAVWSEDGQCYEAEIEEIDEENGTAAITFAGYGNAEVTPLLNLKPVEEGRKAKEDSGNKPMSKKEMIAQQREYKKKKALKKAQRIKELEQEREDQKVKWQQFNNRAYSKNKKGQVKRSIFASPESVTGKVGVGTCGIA

[4] = biological target: T4, 6xHis-SPF30 WT (human, UniProt O75940 1-238); assay: as above; details: protein: recombinant; tags: N-terminal 6xHis (pCold I); C-terminal FLAG from primer KI-125; label: biotin; stem-loop predicted at intron 3/exon 4a/exon 4
T4 sequence: T1 sequence with A199F, A201S, A209V

[5] = biological target: T5, SPF30 ΔC1 (human, UniProt O75940 1-164); assay: as above; details: protein: recombinant; tags: N-terminal 6xHis; label: biotin; stem-loop predicted at intron 3/exon 4a/exon 4
T5 sequence: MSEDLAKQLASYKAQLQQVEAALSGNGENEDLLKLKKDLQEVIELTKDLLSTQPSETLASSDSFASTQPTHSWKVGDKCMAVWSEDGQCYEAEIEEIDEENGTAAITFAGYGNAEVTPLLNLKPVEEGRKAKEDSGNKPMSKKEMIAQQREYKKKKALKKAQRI

Question: Does CUGCUUACAGCCAUGAUAUCUUUACAGGUGUUAUGAAGCGG (ssRNA) [BT-RNA WT] bind [1]?
Answer: binds

Question: Does CUGCUUACAGCCAUGAUAUCUUUACAGGUGUUAUGAAGCGG (ssRNA) [BT-RNA WT] bind [2]?
Answer: no binding

Question: Does CUGCUUACAGCCAUGAUAUCUUUACAGGUGUUAUGAAGCGG (ssRNA) [BT-RNA WT] bind [3]?
Answer: binds

Question: Does CUGCUUACAGCCAUGAUAUCUUUACAGGUGUUAUGAAGCGG (ssRNA) [BT-RNA WT] bind [4]?
Answer: binds

Question: Does CUGCUUACAGCCAUGAUAUCUUUACAGGUGUUAUGAAGCGG (ssRNA) [BT-RNA WT] bind [5]?
Answer: no binding
